The text below walks through data of article PMC3774411, “Characterization of the Human Sigma-1 Receptor Chaperone Domain Structure and Binding Immunoglobulin Protein (BiP) Interactions*” (The Journal of Biological Chemistry, 2013).

The target of assay [1] is T1, isolated nucleotide binding domain of human BiP (residues 26-410) (human, UniProt P11021 26-410).
T1 construct: also called NBD; BiP NBD; source: E. coli BL21(DE3), purified (ammonium sulfate precipitation, nickel chromatography, Q-Sepharose, Superdex200)
Nature of the assay: NMR titration; 15N-labelled S1R(cd) (~250 uM) in DPC micelles titrated with unlabelled BiP constructs; 1H,15N SOFAST-HMQC, cross-peak intensities and chemical shifts; 100 mM NaCl, 30 mM DPC, 5 mM 2-mercaptoethanol, 20 mM HEPES pH 6.5, 37 C; full-length BiP without and with 2.5 mM calcium chloride, NBD without calcium, SBD with 2.5 mM calcium. The conditions noted are these: both partners purified.

Assay [2] deals with T2, human binding immunoglobulin protein (BiP), residues 26-654 ("full length") (human, UniProt P11021 26-654).
T2 construct: Constructs from Herwig Schueler, Karolinska Institutet; also called full-length BiP; source: E. coli BL21(DE3), purified (ammonium sulfate precipitation, nickel chromatography, Q-Sepharose, Superdex200)
The description is as above. Particulars: both partners purified.

T2 sequence (P11021 26-654): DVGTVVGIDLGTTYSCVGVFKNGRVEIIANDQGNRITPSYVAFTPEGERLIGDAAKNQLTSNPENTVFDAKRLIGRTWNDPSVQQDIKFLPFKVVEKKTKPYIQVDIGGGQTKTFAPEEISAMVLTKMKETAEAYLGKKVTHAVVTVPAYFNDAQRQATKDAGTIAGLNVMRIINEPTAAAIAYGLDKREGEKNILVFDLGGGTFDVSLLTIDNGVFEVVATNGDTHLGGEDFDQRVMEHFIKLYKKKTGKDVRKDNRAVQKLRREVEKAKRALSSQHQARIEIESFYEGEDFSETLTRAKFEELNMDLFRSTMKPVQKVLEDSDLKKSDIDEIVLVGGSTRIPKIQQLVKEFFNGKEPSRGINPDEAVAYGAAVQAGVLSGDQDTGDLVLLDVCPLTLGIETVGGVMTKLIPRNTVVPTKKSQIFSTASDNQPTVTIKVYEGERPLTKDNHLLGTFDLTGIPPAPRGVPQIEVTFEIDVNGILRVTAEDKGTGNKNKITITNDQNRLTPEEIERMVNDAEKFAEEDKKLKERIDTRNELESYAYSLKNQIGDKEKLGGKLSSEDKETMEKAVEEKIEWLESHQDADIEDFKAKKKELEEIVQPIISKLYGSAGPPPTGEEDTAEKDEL
T1 sequence (P11021 26-410): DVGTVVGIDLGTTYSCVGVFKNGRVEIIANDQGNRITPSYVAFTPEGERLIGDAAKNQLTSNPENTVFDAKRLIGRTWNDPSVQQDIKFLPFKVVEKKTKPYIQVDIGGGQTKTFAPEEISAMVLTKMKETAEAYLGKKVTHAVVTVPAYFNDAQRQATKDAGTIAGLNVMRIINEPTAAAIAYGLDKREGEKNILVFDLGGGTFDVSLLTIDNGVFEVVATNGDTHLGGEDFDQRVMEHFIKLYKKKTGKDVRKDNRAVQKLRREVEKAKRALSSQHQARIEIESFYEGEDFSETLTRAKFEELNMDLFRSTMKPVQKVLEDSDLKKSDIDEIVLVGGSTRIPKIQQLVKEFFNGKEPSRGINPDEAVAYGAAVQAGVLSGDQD

B1: human sigma-1 receptor chaperone domain (residues 112-223) (domain or fragment, UniProt Q99720 112-223, looked up)
chain: GSRGHSGRYWAEISDTIISGTFHQWREGTTKSEVFYPGETVVHGPGEATAVEWGPNTWMVEYGRGVIPSTLAFALADTVFSTQDFLTLFYTLRSYARGLRLELTTYLFGQDP
notes: sigma-1 receptor (S1R), human, residues 112-223 (chaperone domain; 223 is the C-terminal residue); 15N-labelled for the titrations; No cleavage of the tag is described; also called S1R(cd); S1R chaperone domain
In the case of B1, the binding result in assay [1] and in assay [2] was “binds” throughout.
